These results are taken from paper doi:10.1101/2021.07.14.452405.

The target of experiment [1] is Melbournevirus major capsid protein (Melbournevirus). Kind of experiment: cryo-EM structure.
Experiment [2] concerns the target Melbournevirus penton base protein (Melbournevirus). As to the kind of experiment: cryo-EM structure.

By stoichiometry N is commonly meant a count of units in the complex or per binding partner. Take “Melbournevirus major capsid protein (natural protein)”: the stoichiometry N in experiment [1] came out at 3.

Consider “Melbournevirus penton base protein (natural protein)”, for which, in experiment [2], the stoichiometry N stood at 5.
